In article PMC12311110:

Assays:
[1] = target: hRetromer (recombinant Retromer trimer) (human) (UniProt Q96QK1); test: ITC; Microcal PEAQ-ITC, 25 °C; 1 mM peptide or 530 µM TBC1D13 titrated into 14 µM Retromer; single-site model; mean of triplicate titrations
endogenous VPS26 = endogenous VPS26 (UniProt O75436); test: GFP-based co-IP, western blot band quantification; settings: HEK293T cells, transient transfection; normalised to GFP band intensity; n = 3; parent: est. 100; read off a plot

Chain of recombinant full-length human TBC1D13 (Q9NVG8 whole entry): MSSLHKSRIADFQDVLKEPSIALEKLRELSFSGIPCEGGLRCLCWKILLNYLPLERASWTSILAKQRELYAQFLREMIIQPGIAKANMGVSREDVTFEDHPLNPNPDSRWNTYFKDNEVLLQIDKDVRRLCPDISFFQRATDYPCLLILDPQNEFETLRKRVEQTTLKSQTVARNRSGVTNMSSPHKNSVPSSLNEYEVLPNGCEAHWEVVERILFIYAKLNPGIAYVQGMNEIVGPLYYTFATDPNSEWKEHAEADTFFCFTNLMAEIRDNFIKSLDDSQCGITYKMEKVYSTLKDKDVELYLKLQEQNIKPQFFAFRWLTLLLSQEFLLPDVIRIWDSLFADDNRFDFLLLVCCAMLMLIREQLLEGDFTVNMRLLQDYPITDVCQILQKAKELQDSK

Row | Kd [1] [µM] | dH [1] [kcal/mol] | percent of parent (relative intensity (WT = 100)) (endogenous VPS26) | Substance
1 | 6.3 | -8.1 | – | recombinant full-length human TBC1D13 (from UniProt Q9NVG8 1-400) (natural protein)
2 | 15.4 | -10.1 | – | human DENND4C peptide 1189-1206
3 | – | – | 170 | GFP-VPS29 wild-type (from UniProt Q9UBQ0) V174D

Further lines, the substance ahead of its results:

Row | Substance | Kd [1] [µM] | dH [1] [kcal/mol] | percent of parent (relative intensity (WT = 100)) (endogenous VPS26)
4 | VPS35-GFP WT (from UniProt Q96QK1) I218D | – | – | 120
5 | GFP-VPS29 wild-type (from UniProt Q9UBQ0) L152E | – | – | 110
